Values quoted from earlier work, collected in patent publication US20050119762A1, “Hydrogel providing cell-specific ingrowth” (priority 2003, published 2005).

Key:
MMP-2 [1] = molecular target: T1, MMP-2 (Homo sapiens, UniProt P08253)
T1 sequence (P08253 110-660): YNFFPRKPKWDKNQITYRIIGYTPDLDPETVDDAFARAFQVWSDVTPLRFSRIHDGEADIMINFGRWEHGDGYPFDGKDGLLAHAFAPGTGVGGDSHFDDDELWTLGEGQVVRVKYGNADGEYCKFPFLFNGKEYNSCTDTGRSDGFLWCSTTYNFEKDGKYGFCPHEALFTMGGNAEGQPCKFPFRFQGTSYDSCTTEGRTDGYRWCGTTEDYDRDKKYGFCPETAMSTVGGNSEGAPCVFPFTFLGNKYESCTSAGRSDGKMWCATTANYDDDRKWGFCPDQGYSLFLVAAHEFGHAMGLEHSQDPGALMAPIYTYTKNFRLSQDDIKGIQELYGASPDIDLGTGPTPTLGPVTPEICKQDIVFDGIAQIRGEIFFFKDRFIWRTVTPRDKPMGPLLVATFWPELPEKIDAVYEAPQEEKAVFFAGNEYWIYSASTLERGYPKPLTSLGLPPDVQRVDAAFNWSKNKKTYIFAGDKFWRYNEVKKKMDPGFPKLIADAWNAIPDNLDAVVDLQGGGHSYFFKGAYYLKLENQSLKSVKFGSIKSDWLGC

MMP-9 [2] = molecular target: T2, MMP-9 (Homo sapiens, UniProt P14780); settings: phage clones selected by MMP-9; for % Hydrolysis 1: experiment 1; for % Hydrolysis 2: experiment 2
T2 construct: a recombinant form of the catalytic domain of MMP-9 expressed in HEK 293 cells; host or cells: HEK 293 cells

MMP-9 [3] = molecular target: T2, MMP-9; settings: peptides based on phage clones
MMP-2 [4] = molecular target: T1, MMP-2; settings: synthesized peptides, reciprocal plots
MMP-2 [5] = molecular target: T1, MMP-2; settings: phage substrate clones hydrolysed by activated MMP-2; for % Hydrolysis exp 1: experiment 1; for % Hydrolysis exp 2: experiment 2

T2 sequence (P14780 107-444 limits assumed): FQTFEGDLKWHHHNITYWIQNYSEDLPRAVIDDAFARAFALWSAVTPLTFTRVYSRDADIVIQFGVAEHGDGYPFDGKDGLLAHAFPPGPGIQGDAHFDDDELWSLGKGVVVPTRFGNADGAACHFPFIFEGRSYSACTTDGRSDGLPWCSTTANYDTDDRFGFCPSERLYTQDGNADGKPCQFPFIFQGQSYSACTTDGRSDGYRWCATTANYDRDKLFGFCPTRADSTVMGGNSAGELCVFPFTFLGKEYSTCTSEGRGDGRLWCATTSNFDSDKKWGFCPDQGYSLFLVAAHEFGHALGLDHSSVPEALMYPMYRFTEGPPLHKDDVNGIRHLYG

Substance | % Hydrolysis 1 (MMP-9 [2]) [%] | % Hydrolysis 2 (MMP-9 [2]) [%] | MMP-9 kcat (MMP-9 [3]) [S^−1] | MMP-2 kcat (MMP-2 [4]) [s⁻¹] | % Hydrolysis exp 1 (MMP-2 [5]) [%] | % Hydrolysis exp 2 (MMP-2 [5]) [%] | other results
GCRDSGESLAYYTADRCG | – | – | – | – | – | – | hydrolysis by MMP-2 (MMP-2 [1]): sensitive to hydrolysis
SG ↓ LKALMITA (SGLKALMITA; peptide substrate based on phage clones) [Peptide A7] | 79.8 | 76 | 30 | – | – | – | –
SGAKPRA ↓ LTA (SGAKPRALTA; peptide substrate based on phage clones) [Peptide A3] | – | – | – | 400 | – | – | –
SGANISD ↓ LTA (SGANISDLTA; peptide substrate based on phage clones) [Peptide B37] | – | – | – | 353 | 97 | 95 | –
SGAPSW ↓ LLTA (SGAPSWLLTA; peptide substrate based on phage clones) [Peptide A13P] | – | – | – | 204 | – | – | –
SGAVRW ↓ LLTA (SGAVRWLLTA; peptide substrate based on phage clones) [Peptide A13R] | – | – | – | 28 | – | – | –
SGAVSW ↓ LLTA (SGAVSWLLTA; peptide sequence based on phage clones) [Peptide A13] | 78.9 | 72 | – | 105 | 100 | 93 | –
SGESLAY ↓ YTA (SGESLAYYTA; peptide substrate based on phage clones) [Peptide B74] | – | – | – | 622 | 81 | 90 | –
SGESLRY ↓ YTA (SGESLRYYTA; peptide substrate based on phage clones) [Peptide B74R] | – | – | – | 61 | – | – | –
SGESPAY ↓ YTA (SGESPAYYTA; peptide substrate based on phage clones) [Peptide B74P] | – | – | – | 264 | – | – | –
SGFGSRY ↓ LTA (SGFGSRYLTA; peptide substrate based on phage clones) [Peptide A19] | 45 | 50 | 11 | – | – | – | –
SGHMHAA ↓ LTA (SGHMHAALTA; peptide substrate based on phage clones) [Peptide A21A] | – | – | – | 601 | – | – | –
SGHMHKA ↓ LTA (SGHMHKALTA; peptide substrate based on phage clones) [Peptide A21] | – | – | – | 124 | 30 | 49 | –
SGKGPRQ ↓ ITA (SGKGPRQITA; peptide substrate based on phage clones) [Peptide C15] | 100 | 98 | 703 | – | – | – | –
SGKIPRR ↓ LTA (SGKIPRRLTA; peptide substrate based on phage clones) [Peptide A11m1] | – | – | 224 | – | – | – | –
SGKIPRT ↓ ATA (SGKIPRTATA; peptide substrate based on phage clones) [Peptide A11m2] | – | – | 9.4 | – | – | – | –
SGKIPRT ↓ LTA (SGKIPRTLTA; peptide substrate based on phage clones) [Peptide A11] | 100 | 100 | 86.4 | – | – | – | –
SGLRLAA ↓ ITA (SGLRLAAITA; peptide substrates based on phage clones) [Peptide B49] | – | – | – | 510 | 100 | 100 | –
SGLRPAK ↓ STA (SGLRPAKSTA; peptide substrate based on phage clones) [Peptide A18] | 28.9 | 30 | 78 | – | – | – | –
SGNRYSS ↓ LTA (SGNRYSSLTA; peptide substrate based on phage clones) [Peptide A34] | – | – | – | 202 | 100 | 100 | –
SGPLF ↓ YSVTA (SGPLFYSVTA; peptide substrate based on phage clones) [Peptide A10] | 100 | 100 | 20 | – | 36 | 40 | –
SGPRA ↓ VSTTA (SGPRAVSTTA; peptide substrate based on phage clones) [Peptide A6] | 100 | 99 | 178 | – | 30 | 44 | –
SGQPHY ↓ LTTA (SGQPHYLTTA; peptide substrate based on phage clones) [Peptide B1] | 79.6 | 85 | 9 | – | – | – | –
SGRR ↓ LIHHTA (SGRRLIHHTA; peptide substrates based on phage clones) [Peptide C11] | 94.9 | 74 | – | – | – | – | –
SGRR ↓ LLSRTA (SGRRLLSRTA; peptide substrates based on phage clones) [Peptide A16] | 20.2 | 11 | – | – | – | – | –
SGRSLRR ↓ LTA (SGRSLRRLTA; peptide substrate based on phage clones) [Peptide C9R] | – | – | – | 302 | – | – | –
SGRSLSR ↓ LTA (SGRSLSRLTA; peptide substrate based on phage clones) [Peptide C9] | – | – | – | 740 | 100 | 100 | –
